Consider 8 molecules from US20230265151A1, “GIP/GLP1 CO-AGONIST COMPOUNDS” (priority 2020, published 2023).

Positions count from the first letter of the chain named. Bounds are passed on as bounds.

To fix the notation:
T1: human glucose-dependent insulinotropic polypeptide (GIP) receptor (human) (UniProt P48546)
T1 sequence (looked up): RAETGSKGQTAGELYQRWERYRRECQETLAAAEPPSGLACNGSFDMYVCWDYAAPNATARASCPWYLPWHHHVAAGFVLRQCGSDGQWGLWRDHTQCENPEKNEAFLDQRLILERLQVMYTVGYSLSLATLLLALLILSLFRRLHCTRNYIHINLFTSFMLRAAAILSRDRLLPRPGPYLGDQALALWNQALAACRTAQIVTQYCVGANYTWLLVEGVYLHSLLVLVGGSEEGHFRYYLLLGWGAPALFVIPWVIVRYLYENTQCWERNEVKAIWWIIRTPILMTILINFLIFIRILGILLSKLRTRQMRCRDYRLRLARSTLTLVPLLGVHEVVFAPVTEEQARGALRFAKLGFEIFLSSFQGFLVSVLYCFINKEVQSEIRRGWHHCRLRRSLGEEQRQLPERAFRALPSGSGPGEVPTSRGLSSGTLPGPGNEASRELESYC

T2: human GIP receptor (human, UniProt P48546 22-466)
T2 sequence (looked up): T1 sequence (looked up)

B1: Example 220 (peptide)
peptide: YXEGTXTSDXXIXLDXIAQXKFIXXLIKGGPSSGAPPPS
modifications: Y-Aib-EGT-αMeF(2F)-TSD-4Pal-Aib-I-αMeL-LD-Orn-IAQ-Aib-K((2-[2-(2-Amino-ethoxy)-ethoxy]-acetyl)2-(γ-Glu)-CO-(CH2)12-CO2H)FI-(D-Glu)-αMeY-LIK((2-[2-(2-Amino-ethoxy)-ethoxy]-acetyl)2-(γ-Glu)-CO-(CH2)12-CO2H)GGPSSGAPPPS-NH2
B2: Example 240 (peptide)
peptide: B1 peptide with X10Y
modifications: Y-Aib-EGT-αMeF(2F)-TSDY-Aib-I-αMeL-LD-Orn-IAQ-Aib-K((2-[2-(2-Amino-ethoxy)-ethoxy]-acetyl)2-(γ-Glu)-(10-(4-carboxyphenoxy)decanoyl))FI-(D-Glu)-αMeY-LIK((2-[2-(2-Amino-ethoxy)-ethoxy]-acetyl)2-(γ-Glu)-(10-(4-carboxyphenoxy)decanoyl))GGPSSGAPPPS-NH2
B3: Example 231 (peptide)
peptide: B1 peptide with X10Y, I17K, K21E
modifications: Y-Aib-EGT-αMeF(2F)-TSDY-Aib-I-αMeL-LD-Orn-K((2-[2-(2-Amino-ethoxy)-ethoxy]-acetyl)2-(γ-Glu)-CO-(CH2)12-CO2H)AQ-Aib-EFI-(D-Glu)-αMeY-LIK((2-[2-(2-Amino-ethoxy)-ethoxy]-acetyl)2-(γ-Glu)-CO-(CH2)12-CO2H)GGPSSGAPPPS-NH2
B4: Example 237 (peptide)
peptide: B1 peptide with X10Y, I17K, K21E
modifications: Y-Aib-EGT-αMeF(2F)-TSDY-Aib-I-αMeL-LD-Orn-K((2-[2-(2-Amino-ethoxy)-ethoxy]-acetyl)2-(γ-Glu)-(10-(4-carboxyphenoxy)decanoyl))AQ-Aib-EFI-(D-Glu)-αMeY-LIK((2-[2-(2-Amino-ethoxy)-ethoxy]-acetyl)2-(γ-Glu)-(10-(4-carboxyphenoxy)decanoyl))GGPSSGAPPPS-NH2
B5: Example 243 (peptide)
peptide: B1 peptide with I17K, K28E
modifications: Y-Aib-EGT-αMeF(2F)-TSD-4Pal-Aib-I-αMeL-LD-Orn-K((2-[2-(2-Amino-ethoxy)-ethoxy]-acetyl)2-(γ-Glu)-(10-(4-carboxyphenoxy)decanoyl))AQ-Aib-K((2-[2-(2-Amino-ethoxy)-ethoxy]-acetyl)2-(γ-Glu)-(10-(4-carboxyphenoxy)decanoyl))FI-(D-Glu)-αMeY-LIEGGPSSGAPPPS-NH2
B6: Example 230 (peptide)
peptide: B1 peptide with X10Y, I17K, K28E
modifications: Y-Aib-EGT-αMeF(2F)-TSDY-Aib-I-αMeL-LD-Orn-K((2-[2-(2-Amino-ethoxy)-ethoxy]-acetyl)2-(γ-Glu)-CO-(CH2)12-CO2H)AQ-Aib-K((2-[2-(2-Amino-ethoxy)-ethoxy]-acetyl)2-(γ-Glu)-CO-(CH2)12-CO2H)FI-(D-Glu)-αMeY-LIEGGPSSGAPPPS-NH2
B7: Example 234 (peptide)
peptide: B1 peptide with X10Y
modifications: Y-Aib-EGT-αMeF(2F)-TSDY-Aib-I-αMeL-LD-Orn-IAQ-Aib-K((2-[2-(2-Amino-ethoxy)-ethoxy]-acetyl)2-(γ-Glu)-CO-(CH2)12-CO2H)Fl-(D-Glu)-αMeY-LIK((2-[2-(2-Amino-ethoxy)-ethoxy]-acetyl)2-(γ-Glu)-CO-(CH2)12-CO2H)GGPSSGAPPPS-NH2
B8: Example 236 (peptide)
peptide: B1 peptide with X10Y, I17K, K28E
modifications: Y-Aib-EGT-αMeF(2F)-TSDY-Aib-I-αMeL-LD-Orn-K((2-[2-(2-Amino-ethoxy)-ethoxy]-acetyl)2-(γ-Glu)-(10-(4-carboxyphenoxy)decanoyl))AQ-Aib-K((2-[2-(2-Amino-ethoxy)-ethoxy]-acetyl)2-(γ-Glu)-(10-(4-carboxyphenoxy)decanoyl))FI-(D-Glu)-αMeY-LIEGGPSSGAPPPS-NH2

The target of one assay is human glucagon receptor (human) (UniProt P47871). The assay is described as follows: cell-based or functional assay.
Regarding B1, the cAMP EC50 was greater than 9950 nM.
Same read-out and setting: for B2 the value was greater than 9950 nM; for B3, greater than 9950 nM.
The same measure, in the same setting: for B4 the value was greater than 9950 nM; for B5, greater than 9950 nM; for B6, greater than 9950 nM.
On the same count and under the same terms, for B7 the value was greater than 9950 nM; for B8, greater than 9950 nM.

In a further assay the target is human glucagon-like peptide-1 (GLP-1) receptor (human) (UniProt P43220). The assay is described as follows: cell-based or functional assay.
Molecule B1 registered a cAMP EC50 of 0.535 nM and a cAMP Emax of 87.6%.
The molecule B2 came in with a cAMP EC50 of 0.508 nM and a cAMP Emax of 98.5%.
For B3 the same measures were 1.22 nM and 107%.
For B4 the same measures were 0.633 nM and 102%.
On the same counts, the results for B5 are 0.86 nM and 93.2%.
On to B6, for which the cAMP EC50 amounted to 0.726 nM and the cAMP Emax was 90.3%.
For B7 the same measures were 0.319 nM and 112%.
On the same counts, the results for B8 are 0.336 nM and 96.5%.

The next assay has as its target T1, human glucose-dependent insulinotropic polypeptide (GIP) receptor (human). The assay is described as follows: cell-based or functional assay.
The molecule B1 showed a cAMP EC50 of 0.0237 nM and a cAMP Emax of 91.6%.
Regarding B2, the cAMP EC50 amounted to 0.0237 nM and the cAMP Emax came to 99.1%.
B3 registered a cAMP EC50 of 0.0184 nM and a cAMP Emax of 102%.
B4 showed a cAMP EC50 of 0.0186 nM and a cAMP Emax of 102%.
For B5 the same measures were 0.0154 nM and 101%.
B6 returned a cAMP EC50 of 0.0199 nM and a cAMP Emax of 105%.
For B7 the same measures were 0.0182 nM and 107%.
For the molecule B8, the cAMP EC50 came out at 0.0154 nM and the cAMP Emax came out at 104%.

In a further assay the target is T2, human GIP receptor. The assay is described as follows: cell-based or functional assay.
B1: the “cAMP EC50 (1.0% HSA)” value worked out at 11.6 nM and the “cAMP Emax (1.0% HSA)” value amounted to 83.5%.
For B2 the same measures were 11.7 nM and 87.2%.
On the same counts, the results for B3 are 2.46 nM and 85.4%.
For B4 the same measures were 0.889 nM and 93.1%.
As for B5, the “cAMP EC50 (1.0% HSA)” value was determined as 0.728 nM.
Consider B6, for which the “cAMP EC50 (1.0% HSA)” value is 2.57 nM and the “cAMP Emax (1.0% HSA)” value came out at 85.8%.
On the same counts, the results for B7 are 7.58 nM and 84.4%.
In the case of B8, the “cAMP EC50 (1.0% HSA)” value was 0.641 nM and the “cAMP Emax (1.0% HSA)” value amounted to 80.5%.

A further assay has as its target human GLP-1 receptor (human, UniProt P43220 24-463). The assay is described as follows: cell-based or functional assay.
In the case of B1, the “cAMP EC50 (1.0% HSA)” value amounted to 150 nM and the “cAMP Emax (1.0% HSA)” value is 110%.
On the same counts, the results for B2 are 150 nM and 107%.
Consider B3, for which the “cAMP EC50 (1.0% HSA)” value turned out to be 51.8 nM.
For the molecule B4, the “cAMP EC50 (1.0% HSA)” value stood at 38.1 nM.
As for B5, the “cAMP EC50 (1.0% HSA)” value is 34.7 nM and the “cAMP Emax (1.0% HSA)” value stood at 114%.
In the case of B6, the “cAMP EC50 (1.0% HSA)” value came out at 49.7 nM.
As for B7, the “cAMP EC50 (1.0% HSA)” value was 156 nM and the “cAMP Emax (1.0% HSA)” value is 102%.
On the same counts, the results for B8 are 32.6 nM and 125%.

A further assay concerns the target human glucagon receptor (human, UniProt P47871 26-477). As to the kind of experiment: cell-based or functional assay.
Regarding B1, the “cAMP EC50 (1.0% HSA)” value is greater than 9950 nM.
On the same count and under the same terms, for B2 the value was greater than 9950 nM; for B3, greater than 9950 nM.
On the same count and under the same terms, for B4 the value was greater than 9950 nM.
On the same count and under the same terms, for B5 the value was greater than 9950 nM; for B6, greater than 9950 nM.
For B7, the “cAMP EC50 (1.0% HSA)” value was greater than 9950 nM.
Take B8: the “cAMP EC50 (1.0% HSA)” value was greater than 9950 nM.
